Data published in the DeepSol protein solubility set.

Test: soluble on expression in E. coli; label from the status in PepcDB or PDB records

| Sequence | soluble on expression in E. coli |
| --- | --- |
| MSIKILKPGLFSTIQDIGRLGYQDLGFSEAGALDYYSLSIAQKLIGNHGPAIEYTLVGPNIEFLTDNTFAIVGGDSEPKLNGNKIDLLTVYHVRNGDQLDIGQITEGARGYIVFGHPLKINKVAQSYSTHVRSGMGGFKGRALKKYDVIATQVNHNYKTNLGKTIDFSSIPDNNYIHVIEGPQINEFDEETIAKFVNSDFKISDQSDRMGYRLKGNTVAPKNSADIISEPVALGSIQVPNDGNPIILLNDKQTIGGYTKIATVTQLDLRKLAQMKPGDIIQFKWITVEEASKKLKEFNTKFEQLLKRFDEQPLFNLNQLRHTSNKIAEIIKEDRLEHHHHHH | not soluble |
| MTVPSIVLNDGNSIPQLGYGVYKVPPADTQRAVEEALEVGYRHIDTAAIYGNEEGVGAAIAASGIARDDLFITTKLWNDRHDGDEPAAAIAESLAKLALDQVDLYLVHWPTPAADNYVHAWEKMIELRAAGLTRSIGVSNHLVPHLERIVAATGVVPAVNQIELHPAYQQREITDWAAAHDVKIESWGPLGQGKYDLFGAEPVTAAAAAHGKTPAQAVLRWHLQKGFVVFPGSVRREHLEENLDVFDFDLTDTEIAAIDAMDPGDGSGRVSGHPDEVD | soluble |
| MGSDKIHHHHHHVINLKELKILHTSDWHLGVTSWTSSRPVDRREELKKALDKVVEEAEKREVDLILLTGDLLHSRNNPSVVALHDLLDYLKRMMRTAPVVVLPGNHDWKGLKLFGNFVTSISSDITFVMSFEPVDVEAKRGQKVRILPFPYPDESEALRKNEGDFRFFLESRLNKLYEEALKKEDFAIFMGHFTVEGLAGYAGIEQGREIIINRALIPSVVDYAALGHIHSFREIQKQPLTIYPGSLIRIDFGEEADEKGAVFVELKRGEPPRYERIDASPLPLKTLYYKKIDTSALKSIRDFCRNFPGYVRVVYEEDSGILPDLMGEIDNLVKIE | soluble |
| MKSVMSNPTFRQDSIRMFRGRKPPQKGKPAMEIKSERSDSQHTLTITVPLGKASRNDQPPSNLTEEAAKKVAGTGRNDGKKVQFAEKLVNKTKSPSTGPSTSKKLQKSQKTQKSSKKSQKKSKKSKKSSKSK | not soluble |
| MADADLVMTGTVLTVDDARPTAEAIAVADGRVIAVGDRSEVAGLVGANTRVIDLGAGCVMPGFVEAHGHPLLEAVVLSDRFVDIRPVTMRDADDVVAAIRGEVARRGPAGAYLVGWDPLLQSGLGEPTLTWLDSLAPNGPLVIIHNSGHKAYFNSHAAWLNGLTRDTADPKGAKYGRDGNGELDGTAEEIGAILPLLAGVADPSNFGAMLRAECARLNRAGLTTCSEMAFDPGYRPMVEAVRAELTVRLCTYEISNARMCTDATPGQGDDMLRQVGIKIWVDGSPWVGNIDLTFPYLDTPATRAIGVPPGSRGCANYTREQLAEIVGAYFPRGWQIACHVHGDGGVDTILDVYEEALRRNPRDDHRLRLEHVGAIRPDQLRRAAELGVTCSIFVDQIHYWGDVIVDDLFGAQRGSRWMPAGSAVAAGMRISLHNDPPVTPEEPLRNISVAATRVAPSGRVLAPEERLTVEQAIRAQTIDAAWQLFAEDAIGSLQVGKYADMVVLSADPRTVPPEQIADLAVRATFLAGRQVYRRLEHHHHHH | not soluble |
| MGSDKIHHHHHHLEELDQMRAVFGTRPWREPTDTPAVISVSNFKGGVGKSTVALHLAQHFAIHGYRVLFIDCDSQASSTMMFGYRPDVDLTEDDTLYGHFHNPELLGVRSIIRKTHFFGLDLIPANLKLYNLEYEIAGYLAQNQNFDIIDLIAEAIDTVVDDYDVVVMDPPPALGMVSMAVLQAANAMVIPVPPSVIDFASTVSFIDMARTTMKQLEQIAGRVKPAYNFIRLVGSRVDESKSMHREILSMMRQVFGGSMATSVLKTSAEIDNASSRMKTVFELDRPVTSHEVHNRCMKHLSDVCREIETDVLRTWASRAGEAV | not soluble |
| MGSDKIHHHHHHMIMKFFDREREINEILGILDETPDNIYFIYGPINSGKTTLMMEIINRLKDDKKYRIFYYNLRGVRISSYSDFFDIMFEIREDNKFKQMVKDADVLVEGIKFIEKTAKLFNESIILPSDLAKVILSKQKGFDVFRYLERVFREMNKKGLKPVIIIDELQRLKGLKSNGELIDDLFNFFVRLTKELHITHCFCLSSDSLFIEYVYDRAELRGRADYILVDDFDKETALKFMDFLSEDILGRKLSEDEKELIYSYVGGKPKDVYDVIIKLKLGKELKDILEFMLKEEIQKLKYFLEDVKEDDEELYNKIVDALKIFKENYEIEDIKIPKNIREFLVKKNILFLNPIEGTLKPQSFLVWNAIKKLLNGH | not soluble |
| VDMSNVVKTYDLQDGSKVHVFKDGKMGMENKFGKSMNMPEGKVMETRDGTKIIMKGNEIFRLDEALRKGHSEGG | soluble |
| MGSDKIHHHHHHMAYEQFAYVYDELMQDVPYPEWVAWVLEQVEPGKRIADIGCGTGTATLLLADHYEVTGVDLSEEMLEIAQEKAMETNRHVDFWVQDMRELELPEPVDAITILCDSLNYLQTEADVKQTFDSAARLLTDGGKLLFDVHSPYKMETLFNGKTYATHAEQSSYIWFADPGEEPLSVVHELTFFIEGEDGRYDRVDETHHQRTYPPEQYITWLREAGFRVCAVTGDFKSDAPTETAERIFFVAEKI | not soluble |
| MEKAYDFEVEAPPEVVRDYLMNPENLMKYIPHFKDLKRVDDGWELYVSWLFTIKLKVKRVFTNTDIIYLVEKSEGLIKIKSSLRFTIFPSKGGITIVRLVFFYDGPFESIVKGQADAFYRKGKEVFKTEMTKEKRIQEEQNGVKGEVSIYEMKTIFSGKINKDELEKYLEIAMVKSVNSTVVVILSDERNIIEIKFKGGELVAQKGDLDSLSSPITILIKQLEHHHHHH | soluble |
| MNEEKQQELLISVIITNYNYDQFIDQAIESVLSQTYYNFELIIVDDGSTDNSRDVISSYTDSRIKALVKNNGGQASAFNAGFEQANGEIICFLDSDDWWKPEKLETIIRWHYFINKDYAIFQHVLDVWYEGKTRPYKHILPSGDCFAEMKKVKKLDFFVPTSGLSFPKKILDRIFPIPIKFIIAADSYIMRTACVFNMVYSIPKSLGFYRQHDNTVFLNPDFDLQPFLKEILIPELNQFYQKYRINYQIEISDYNFNERKKNKKQKIFEYLKKVFFLEHHHHHH | not soluble |
| MNSKKVLFIIFICALTVTGCDTQEQTTIDSGLTLIRATQTLDSLYANYSVSGTCLLRENYPSNVGNYTATYLASEEQKEIPNQYSYLWPYSGTFSAVNALCAATGDESYKTLLDNKVLRGLEKYLDISRSPAGYASYINTASQSDRFYDDNIWLGIDFTDAYLNTKEEKYLKKAQLIWKFIESGADDKLGGGIYWCEQKKVSKNTCSNAPASVFALKMFKAIRDSSYLIKGQELYEWTKKRLQDSTDYLYFDNISLDGKIDKSKYAYNSGQMMQAATLLYQLTGRSHFLKDAQNIAKACYNYFFINFIPEEGEPFKLLKKGDVWFTAVMLRGFIELYQTDHNKTYINSFNQNMDYAWEHVRDEKGLFDIDFSGRTHDDRKWLLTQAAMVEMYARLAVTKLEHHHHHH | not soluble |
| MGSDKIHHHHHHMANGTTPSVGIALGSGAAKGWAHIGVLNGLAAMGIKPDKVAGCSVGALVGAAYAHDHLPELEEWVRSFSSWDVLGLMDIRWRKGGLIGGDKVFDVLQARIGDVNIENLNRPFAAVATDLYSGQEIWFTEGDLRQAVRASCSMPGILAPVRQGDRWLVDGAVVNPVPVSVSRAMGVDVVIAVDLYGYHSGRIQVLPVSMTSQKNVEAEMDMSARQETGFMDLFARGRDYVSNLTDKFSLGTKSNPGMIAVMSQSMGILEQRHKRARLMGDPPDICIVPEVGNIGTMEFHRADEAIAAGEAAVEKVAHLIEAALWKG | not soluble |
| MERVSITERPDWRDKATEYGFNFHTMYGEPYWCEDAYYKLTLAQVEKLEDVTAELHQMCLKVVERVIASDELMTKFRIPKHTWGFVRQSWQTQQPSLYSRLDLAWDGIGEPKLLENNADTPTSLYEAAFFQWIWLEDQINAGNLPEGSDQFNSLQEKLIERFAELREQYGFQLLHLTCCRDTVEDRGTIQYLQDCAAEAEIATEFLYIDDIGLGEKGQFTDLQDQVIANLFKLYPWEFMLREMFSTKLEDAGVRWLEPAWKSIISNKALLPLLWEMFPDHPNLLPAYFAEDEHPPMDKYVVKPIFSREGANVSIIENGKTIESVEGPYGEEGMIVQQFYPLPKFGDSYTLIGSWLINDQPAGIGIREDRALITQDLSRFYPHIFVEG | not soluble |
| MTILEELNDSSIPQRLDNHIFFGSVHSLTHTDFLVENNIRFFINVDLSTELISHIYHEVRSKFAHEIVIVNIDNDSQIPIESDLVRSFHWHNTSLLQQLIHHLDFLSGINNHGEPLTPPPESHYRNAYVQFDHPSDSVSILDKLLYGNKSEYSRTNIFQVTNEAKFQVFNDLITIFKYSIAQGGNTNSNILVLSENGSTDENLISLLMSTVLKENPTFNVYQALQFVKSIAVIPDTVRDEKILWVTGFINYQELIKKNEMYWGLGSQKGRKLTSFASPISKVERKQRRRDDQNIMRSKLPQQRQNPFCSTERPKRARCD | not soluble |
| TSKQRYSGKVHLCVARYSYNPFDGPNENPEAELPLTAGKYLYVYGDMDEDGFYEGELLDGQRGLVPSNFVDFVQDNESRLAST | soluble |
| RAETAVQRTEDRYHNLVDTAPIPILLFDRDWKALYANEAAIAFLDADSFTEIAGKKASDFLHPDERDAARKRFQRLMREGVSVPEREYRVMTAEGEVKTATIATAPGYYRGEQVAQAMVYR | soluble |
| MPSEKEDDVMKNVTFAEGKKFGDWKIGKTIDEGGFGKVYIATSISDPKKVAALKAESNEIEGGSAIKLEAMILNKLNANGPVPHIPVVHLCAKRKLYCYMVMTLLGRNLRKLKSTNLVVNNGFSRGTWSRIGIQCLYALKYVHDNGFIHRDVKPQNFLLGNETDSERARIVHILDFGLARPFAVFHARENKWIARRARGTAEFRGTLRYTSPNVHLRKEQGRVDDVWSLLYVIIELNGGKALPWQTDSQRERVEQMKLNLPAKVVMSNMPACMDKVMPHLASLDYYQRPDYHMIFKCFWQVMENEKITPSSKYDWEKDEPDKSVPPASWENPAGPFFQSDPLGINAPPTPAEAALTEKSGKKHGKK | soluble |
| GSHMTNDIYFMTLAIEEAKKAAQLGEVPIGAIITKDDEVIARAHNLRETLQQPTAHAEHIAIERAAKVLGSWRLEGCTLYVTLEPCVMCAGTIVMSRIPRVVYGADDPKGGCSGSLMNLLQQSNFNHRAIVDKGVLKEACSTLLTTFFKNLRANKKSTN | soluble |
| MDPLEALQKHVQRPEEFPLREVTVSGISYVAFGDYAYKKDTETSLQIYGKSDEFYSLESLVVFLKYSHENHGVYVKEAAAAGVRAVTRIDRKNVTEYLQGDRTDFPALMNQVNPLSLRQLLHSSEPEAKKPRLDGEAAGEPMDTSTSAEICSKIPIFLKINSIFFPDEPQESAVSAAKKEVEIRALNDNLTKDRIAEMRRKRQSHREKGIVTIETTFPQKPDFLIKKFQFFSESLSTLTSASLPKTRIHKTRENVMLGARDLSNVLDIITSAQRQWDLNEKKEKVAAVHATNLSKDQSGAAGGQQQRSGYSRYAQEAFAHEKTKEIQTEGSFIGSNFSSIKQGHHAVQKAPDAPPGRPPLAKPIQLLTSSTATSSGSSAAQNGSKRTSRSPIIIVPSAMNTMINLYNVRDILQNFSYVPVDQRRKETNKKPVDLAIQRQKNGVTYNIRVIDNAEKLANDDWDRVIAVFVMGVAWQFKGWKWNGNPTDIFTHIPAFHFHVDQDKPVAQVMQWNVHKIPVSATKRHMDKARFSQVWETIENFVRKNKPHLTARLGL | not soluble |
